From publication PMC2635894 (Biochemistry, 2008)
coumarin = not defined here

Experiments:
[1] = molecular target: T1, HDAC8 (histone deacetylase 8) (Homo sapiens, UniProt Q9BY41, D101E); experiment: X-ray crystal structure; type: binding
T1 sequence (Q9BY41 1-377 D101E): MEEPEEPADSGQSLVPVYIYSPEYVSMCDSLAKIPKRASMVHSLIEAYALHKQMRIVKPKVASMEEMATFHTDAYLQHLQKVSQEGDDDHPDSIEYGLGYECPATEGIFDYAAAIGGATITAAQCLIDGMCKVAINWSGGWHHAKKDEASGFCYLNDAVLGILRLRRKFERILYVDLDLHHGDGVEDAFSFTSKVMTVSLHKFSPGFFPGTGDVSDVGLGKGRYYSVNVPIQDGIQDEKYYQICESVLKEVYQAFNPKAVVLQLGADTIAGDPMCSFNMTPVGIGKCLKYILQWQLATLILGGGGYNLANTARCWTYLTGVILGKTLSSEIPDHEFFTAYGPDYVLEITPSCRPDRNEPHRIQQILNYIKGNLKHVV

[2] = molecular target: T2, HDAC8 (histone deacetylase 8) (Homo sapiens, UniProt Q9BY41, D101N); experiment: X-ray crystal structure; type: binding
T2 sequence (Q9BY41 1-377 D101N): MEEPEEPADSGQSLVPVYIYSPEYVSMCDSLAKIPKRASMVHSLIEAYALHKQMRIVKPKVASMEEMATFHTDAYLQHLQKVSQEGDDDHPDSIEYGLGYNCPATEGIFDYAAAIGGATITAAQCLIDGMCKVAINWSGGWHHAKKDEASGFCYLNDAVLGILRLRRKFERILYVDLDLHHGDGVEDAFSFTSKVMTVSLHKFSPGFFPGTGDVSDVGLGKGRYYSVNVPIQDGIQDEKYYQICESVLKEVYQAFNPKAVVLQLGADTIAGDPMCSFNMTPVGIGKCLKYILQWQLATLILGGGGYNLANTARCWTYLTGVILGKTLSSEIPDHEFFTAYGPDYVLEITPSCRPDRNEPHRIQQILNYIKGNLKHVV

[3] = molecular target: T3, HDAC8 (histone deacetylase 8) (Homo sapiens, UniProt Q9BY41, D101A); experiment: X-ray crystal structure; type: binding
T3 sequence (Q9BY41 1-377 D101A): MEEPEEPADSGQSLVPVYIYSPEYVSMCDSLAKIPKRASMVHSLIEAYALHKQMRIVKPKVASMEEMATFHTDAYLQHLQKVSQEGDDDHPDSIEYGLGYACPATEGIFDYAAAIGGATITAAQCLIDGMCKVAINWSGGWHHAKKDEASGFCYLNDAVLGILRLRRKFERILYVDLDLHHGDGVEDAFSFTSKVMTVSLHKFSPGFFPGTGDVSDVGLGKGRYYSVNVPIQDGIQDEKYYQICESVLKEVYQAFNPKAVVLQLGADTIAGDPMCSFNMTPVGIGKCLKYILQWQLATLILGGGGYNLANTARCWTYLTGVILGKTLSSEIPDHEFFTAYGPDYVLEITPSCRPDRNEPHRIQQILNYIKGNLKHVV

[4] = molecular target: T4, D101L HDAC8 (human histone deacetylase 8, D101L variant) (human, UniProt Q9BY41 1-377, D101L); experiment: cell-based or functional assay
T4 sequence: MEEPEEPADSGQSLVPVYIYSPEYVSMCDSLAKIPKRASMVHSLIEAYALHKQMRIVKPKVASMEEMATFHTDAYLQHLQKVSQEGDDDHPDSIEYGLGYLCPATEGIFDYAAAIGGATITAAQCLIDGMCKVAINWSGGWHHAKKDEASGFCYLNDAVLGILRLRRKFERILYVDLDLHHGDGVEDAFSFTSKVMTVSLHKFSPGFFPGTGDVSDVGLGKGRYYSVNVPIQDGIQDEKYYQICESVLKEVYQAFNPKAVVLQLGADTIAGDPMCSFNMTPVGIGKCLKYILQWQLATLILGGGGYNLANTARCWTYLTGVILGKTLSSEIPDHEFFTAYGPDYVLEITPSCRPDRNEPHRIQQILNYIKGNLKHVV

[5] = molecular target: T5, D101N HDAC8 (human histone deacetylase 8, D101N variant) (human, UniProt Q9BY41 1-377, D101N); experiment: cell-based or functional assay
T5 sequence: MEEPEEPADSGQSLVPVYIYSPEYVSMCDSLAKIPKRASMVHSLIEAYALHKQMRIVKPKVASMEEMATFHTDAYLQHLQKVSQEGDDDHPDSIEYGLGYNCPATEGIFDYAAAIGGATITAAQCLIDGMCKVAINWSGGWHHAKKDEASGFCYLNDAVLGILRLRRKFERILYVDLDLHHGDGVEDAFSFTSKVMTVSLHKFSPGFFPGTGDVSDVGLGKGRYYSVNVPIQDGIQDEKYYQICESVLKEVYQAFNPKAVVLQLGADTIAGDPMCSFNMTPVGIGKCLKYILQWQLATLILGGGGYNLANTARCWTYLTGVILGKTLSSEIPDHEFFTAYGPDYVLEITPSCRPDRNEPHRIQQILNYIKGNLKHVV

[6] = molecular target: T6, D101E HDAC8 (human histone deacetylase 8, D101E variant) (human, UniProt Q9BY41 1-377, D101E); experiment: cell-based or functional assay
T6 sequence: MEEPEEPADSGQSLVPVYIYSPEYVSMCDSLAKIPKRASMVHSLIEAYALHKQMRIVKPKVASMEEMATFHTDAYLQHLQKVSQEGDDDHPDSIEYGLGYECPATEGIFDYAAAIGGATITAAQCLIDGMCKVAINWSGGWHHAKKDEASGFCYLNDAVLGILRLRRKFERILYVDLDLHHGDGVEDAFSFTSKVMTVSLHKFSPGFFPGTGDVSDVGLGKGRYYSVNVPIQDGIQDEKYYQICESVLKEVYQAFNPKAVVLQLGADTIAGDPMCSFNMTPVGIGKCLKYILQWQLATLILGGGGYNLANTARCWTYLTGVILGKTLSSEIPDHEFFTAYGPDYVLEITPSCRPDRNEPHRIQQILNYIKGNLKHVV

[7] = molecular target: T7, D101A HDAC8 (human histone deacetylase 8, D101A variant) (human, UniProt Q9BY41 1-377, D101A); experiment: cell-based or functional assay
T7 sequence: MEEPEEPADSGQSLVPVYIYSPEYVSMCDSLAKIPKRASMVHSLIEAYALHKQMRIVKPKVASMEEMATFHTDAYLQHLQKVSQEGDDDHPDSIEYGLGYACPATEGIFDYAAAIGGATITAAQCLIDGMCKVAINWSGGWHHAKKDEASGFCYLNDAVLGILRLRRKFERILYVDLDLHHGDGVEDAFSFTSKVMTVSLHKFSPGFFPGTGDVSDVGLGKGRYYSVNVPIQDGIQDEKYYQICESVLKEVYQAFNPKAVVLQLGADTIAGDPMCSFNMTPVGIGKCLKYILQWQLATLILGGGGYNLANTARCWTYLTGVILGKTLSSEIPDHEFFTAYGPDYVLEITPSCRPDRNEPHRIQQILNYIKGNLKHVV

Molecule	X-ray crystal structure (2.85 Å) [1]	X-ray crystal structure (2.65 Å) [2]	X-ray crystal structure (2.55 Å) [3]	KM of deacetylation (Fluor de Lys assay, Co2+ enzyme, 25°C, pH 8.0) [4] [μM]	KM of deacetylation (Fluor de Lys assay, Co2+ enzyme, 25°C, pH 8.0) [5] [μM]	kcat/KM of deacetylation (Fluor de Lys assay, Co2+ enzyme, 25°C, pH 8.0) [5] [M^−1s^−1]	KM of deacetylation (Fluor de Lys assay, Co2+ enzyme, 25°C, pH 8.0) [6] [μM]	kcat/KM of deacetylation (Fluor de Lys assay, Co2+ enzyme, 25°C, pH 8.0) [6] [M^−1s^−1]	KM of deacetylation (Fluor de Lys assay, Co2+ enzyme, 25°C, pH 8.0) [7] [μM]	kcat/KM of deacetylation (Fluor de Lys assay, Co2+ enzyme, 25°C, pH 8.0) [7] [M^−1s^−1]
CN(C)c1ccc(C(=O)NCCCCCCC(=O)NO)cc1 [M344, 4-(dimethylamino)-N-[7-(hydroxyamino)-7-oxoheptyl]-benzamide]	Two conformations of the bound inhibitor are observed in the active sites of D101E, D101A and D101N HDACs	The alternate conformer is stabilized by a hydrogen bond interaction with N101 in D101N HDAC8	Two conformations of the bound inhibitor are observed in the active sites of D101E, D101A and D101N HDACs							
Ac-RHK(Ac)K(Ac)-coumarin (reading uncertain) [acetylated tetrapeptide substrate (N-acetyl-arginine-histidine-acetyllysine-acetyllysine-coumarin)]				> 1000	> 1000	0.23	140	1100	> 1000	0.23
